The values that follow come from patent publication US7555415B2, “Methods for the design of estrogen receptor ligands” (Wyeth, priority 2005, dated 2009).

The data set deals with the molecule itself. Kind of data set: X-ray crystallography, co-crystals with Compound 1 or Compound 2, two LBD molecules per asymmetric unit.

B1: human estrogen receptor alpha ligand binding domain (ERalpha-LBD), carboxymethylated (receptor)
chain: SKKNSLALSLTADQMVSALLDAEPPILYSEYDPTRPFSEASMMGLLTNLADRELVHMINWAKRVPGFVDLTLHDQVHLLECAWLEILMIGLVWRSMEHPVKLLFAPNLLLDRNQGKCVEGMVEIFDMLLATSSRFRMMNLQGEEFVCLKSIILLNSGVYTFLSSTLKSLEEKDHIHRVLDKITDTLIHLMAKAGLTLQQQHQRLAQLLLILSHIRHMSNKGMEHLYSMKCKNVVPLYDLLLEMLDAHRLHAPTS
modifications: carboxymethylated with 5 mM iodoacetic acid while bound to the estradiol-affinity column; modified residues not stated
notes: also called human ERalpha-LBD; ERalpha-LBD (301-554)
In the case of B1, the binding result is reported as “binds”.
